Values quoted from earlier work, collected in US6689582B1, “Polynucleotide molecules encoding proteins having proteinase inhibitor activity” (Bayer Pharmaceuticals Corporation, priority 1999, dated 2004).
Where two headings read alike, the source gives them in different places. Ends that are not written are not given here.

Columns and labels:
plasma kallikrein = plasma kallikrein (Homo sapiens, UniProt P03952)
cathepsin G = target: T1, cathepsin G (Homo sapiens, UniProt P08311)
T1 sequence (P08311 21-255): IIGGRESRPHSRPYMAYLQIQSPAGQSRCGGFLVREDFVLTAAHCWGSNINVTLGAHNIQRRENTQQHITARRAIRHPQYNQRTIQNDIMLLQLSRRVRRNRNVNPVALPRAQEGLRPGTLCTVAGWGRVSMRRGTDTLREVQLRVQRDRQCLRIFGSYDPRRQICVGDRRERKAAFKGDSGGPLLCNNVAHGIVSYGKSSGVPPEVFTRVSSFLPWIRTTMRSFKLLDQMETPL

thrombin = thrombin (Homo sapiens, UniProt P00734)
leukocyte elastase = target: T2, leukocyte elastase (Homo sapiens, UniProt P08246)
T2 sequence (P08246 30-267): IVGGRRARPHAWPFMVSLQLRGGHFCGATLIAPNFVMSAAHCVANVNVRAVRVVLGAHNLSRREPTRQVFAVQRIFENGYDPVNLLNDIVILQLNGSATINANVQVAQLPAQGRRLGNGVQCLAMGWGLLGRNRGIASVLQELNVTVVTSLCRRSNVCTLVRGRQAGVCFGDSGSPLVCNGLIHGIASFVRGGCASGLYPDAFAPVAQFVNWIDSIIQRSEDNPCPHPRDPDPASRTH

proteinase 3 = target: T3, proteinase 3 (Homo sapiens, UniProt P24158)
T3 sequence (P24158 28-256): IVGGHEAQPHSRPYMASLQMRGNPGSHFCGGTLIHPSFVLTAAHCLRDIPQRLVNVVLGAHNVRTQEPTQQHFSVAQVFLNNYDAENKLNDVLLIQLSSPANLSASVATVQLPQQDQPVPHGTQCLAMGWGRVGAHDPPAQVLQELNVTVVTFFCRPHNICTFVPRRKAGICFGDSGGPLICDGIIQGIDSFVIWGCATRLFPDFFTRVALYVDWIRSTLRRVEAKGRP

Chain of plasma kallikrein (P03952 20-638, species assumed): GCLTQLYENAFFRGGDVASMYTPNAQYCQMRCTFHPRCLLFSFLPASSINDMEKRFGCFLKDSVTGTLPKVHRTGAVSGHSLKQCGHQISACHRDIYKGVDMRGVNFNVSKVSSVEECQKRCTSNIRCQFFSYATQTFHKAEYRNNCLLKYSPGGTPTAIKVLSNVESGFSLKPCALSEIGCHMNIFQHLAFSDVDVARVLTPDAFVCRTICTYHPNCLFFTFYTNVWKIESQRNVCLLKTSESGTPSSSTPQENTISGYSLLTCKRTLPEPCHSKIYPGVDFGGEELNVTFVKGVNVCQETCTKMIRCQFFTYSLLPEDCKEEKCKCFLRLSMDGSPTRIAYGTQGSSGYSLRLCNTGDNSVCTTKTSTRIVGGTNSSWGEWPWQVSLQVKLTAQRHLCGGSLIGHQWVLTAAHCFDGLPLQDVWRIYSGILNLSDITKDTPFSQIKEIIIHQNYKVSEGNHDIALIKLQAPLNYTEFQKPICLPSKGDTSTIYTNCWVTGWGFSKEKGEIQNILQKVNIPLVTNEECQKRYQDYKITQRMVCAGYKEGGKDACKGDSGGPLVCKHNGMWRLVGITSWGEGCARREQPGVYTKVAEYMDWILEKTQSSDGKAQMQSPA

In the case of “APP KD variant (T11D, P13H, M17A, I18H, S19P and F34Y): phage display derived plasma kallikrein inhibitor differing from APP KD at 6 key residues (VREVCSEQAEDGHCRAAHPRWYFDVTEGKCAPFYYGGCGGNRNNFDTEEYCMAVC; ends and bridges not checked; cysteine pairing not given here)”, the Ki (plasma kallikrein) is listed as about 0.015 nM and the “increase in binding affinity to plasma kallikrein compared to wild-type APP KD” value (plasma kallikrein) is listed as “more than 10,000 fold”.

In the case of “Alpha-1-proteinase: serpin family serine proteinase inhibitor, major serum inhibitor of elastase and cathepsin G”, the “inhibition of cathepsin G (in words)” value (cathepsin G) is given as “inhibit” and the “inhibition of cathepsin G (in words)” value (cathepsin G; listed as Alpha 1-proteinase inhibitor) is given as “potent inhibitor”.

For “alpha 1-proteinase inhibitor [Arg358]: P1 variant of alpha 1-proteinase inhibitor”, the “inhibition of thrombin (in words)” value (thrombin) is given as “potent inhibitor” and the “inhibition of leukocyte elastase (in words)” value (leukocyte elastase) is given as “not”.

For “elafin: member of the mucous proteinase inhibitor family (AQEPVKGPVSTKPGSCPIILIRCAMLNPPNRCLKDTDCPGIKKCCEGSCGMACFVPQ; ends and bridges not checked; cysteine pairing not given here; UniProt P19957 61-117, looked up)”, the “inhibition of proteinase 3 (in words)” value (proteinase 3) is given as “not”.

B1: placental bikunin: human Kunitz family inhibitor, potent inhibitor of plasmin (protein, UniProt O43291 28-252, looked up)
Kunitz-type protease …: ADRERSIHDFCLVSKVVGRCRASMPRWWYNVTDGSCQLFVYGGCDGNSNNYLTKEECLKKCATVTENATGDLATSRNAADSSVPSAPRRQDSEDHSSDMFNYEEYCTANAVTGPCRASFPRWYFDVERNSCNNFIYGGCRGNKNSYRSEEACMLRCFRQQENPPLPLGSKVVVLAGLFVMVLILFLGASMVYLIRVARRNQERALRTVWSSGDDKEQLVKNTYVL
For B1, the “inhibition of leukocyte elastase (in words)” value (leukocyte elastase) is given as “not”.

B2: SLPI: member of the mucous proteinase inhibitor family (protein, UniProt P03973 26-132, looked up)
Antileukoproteinase: SGKSFKAGVCPPKKSAQCLRYKKPECQSDWQCPGKKRCCPDTCGIKCLDPVDTPNPTRRKPGKCPVTYGQCLMLNPPNFCEMDGQCKRDLKCCMGMCGKSCVSPVKA
In the case of B2, the “inhibition of proteinase 3 (in words)” value (proteinase 3) is listed as “not”.

B3: Alpha-1-antichymotrypsin: serpin family proteinase inhibitor, physiological cathepsin G inhibitor (protein, UniProt P01011 24-423, looked up)
Alpha-1-antichymotrypsin: HPNSPLDEENLTQENQDRGTHVDLGLASANVDFAFSLYKQLVLKAPDKNVIFSPLSISTALAFLSLGAHNTTLTEILKGLKFNLTETSEAEIHQSFQHLLRTLNQSSDELQLSMGNAMFVKEQLSLLDRFTEDAKRLYGSEAFATDFQDSAAAKKLINDYVKNGTRGKITDLIKDLDSQTMMVLVNYIFFKAKWEMPFDPQDTHQSRFYLSKKKWVMVPMMSLHHLTIPYFRDEELSCTVVELKYTGNASALFILPDQDKMEEVEAMLLPETLKRWRDSLEFREIGELYLPKFSISRDYNLNDILLQLGIEEAFTSKADLSGITGARNLAVSQVVHKAVLDVFEEGTEASAATAVKITLLSALVETRTIVRFNRPFLMIIVPTDTQNIFFMSKVTNPKQA
In the case of B3, the “inhibition of proteinase 3 (in words)” value (proteinase 3) is listed as “not”.
